Measured values as given in patent US7141393 (KABUSHIKI KAISHA HAYASHIBARA SEIBUTSU KAGAKU KENKYUJO, dated 2006).

Molecular target: T1, IL-18R protein on the surface of L428 cell (human, UniProt Q13478 19-541)
T1 construct: whole, on cells; Endogenous receptor on cell lines; also called L428 cells; IL-18R protein on the surface of KG-1 cell
T1 sequence (looked up): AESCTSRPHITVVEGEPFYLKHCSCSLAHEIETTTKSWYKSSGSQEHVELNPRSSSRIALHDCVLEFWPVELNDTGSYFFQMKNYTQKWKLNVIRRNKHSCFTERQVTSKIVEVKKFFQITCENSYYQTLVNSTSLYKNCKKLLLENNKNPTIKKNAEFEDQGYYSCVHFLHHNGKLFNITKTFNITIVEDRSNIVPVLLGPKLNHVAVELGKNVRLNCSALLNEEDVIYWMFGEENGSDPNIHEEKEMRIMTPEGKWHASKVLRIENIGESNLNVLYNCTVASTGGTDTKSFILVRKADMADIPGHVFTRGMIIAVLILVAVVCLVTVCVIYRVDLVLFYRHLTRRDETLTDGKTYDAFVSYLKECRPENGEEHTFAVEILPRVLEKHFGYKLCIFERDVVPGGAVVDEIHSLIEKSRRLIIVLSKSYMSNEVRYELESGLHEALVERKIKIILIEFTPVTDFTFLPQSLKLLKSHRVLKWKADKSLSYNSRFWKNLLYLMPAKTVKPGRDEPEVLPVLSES
Assay: inhibition of 125I-labelled IL-18 binding to L428 cells (FIG. 1 legend)
Procedure: Subsequently, each cell suspension was added with 200 µl mixture solution (volume ratio 1:1) of dibutylphthalate and diocthylphtalate and centrifuged at 10,000 rpm and 20° C. for 5 minutes, followed by collecting the resultant precipitates containing the cells which were then determined for radioactivity using "MODEL ARC-300", a gamma-ray counter commercialized by Aloka Co., Ltd, Tokyo, Japan.
The levels of radioactivity found in "non-specific binding section" and "whole binding section" were put in Formula 1 together with that found in the sample testing section to calculate percent inhibition.

B1: monoclonal antibody MAb #117-10C (antibody, V domains shown)
VH: EVQLQQSGAELVKPGASVKLSCTTSGFNIKDIYIYWVKQRPEQGLEWVGRIDPANGDTKYGPNFQDKATITADTSSNTAYLQLRSLTSEDTAVYYCARRGNYGAGFGYWGQGTLVTVSA
VL: DIQMTQSPASLSASVGETVTITCRASGNIHNYLAWYQQRQGKSPQILVYNAKTLADGVSSRFSGSGSGTQYSLNINSLQPEDFGTYFCQHFWSTPYTFGGGTKLEIKR
notes: Mouse hybridoma antibody purified from ascites
binding result: binds
